Sequences and labels used below:
B1: GST-c-IAP-1(BIR) (other, human, UniProt Q13490 1-350, looked up)
chain: MHKTASQRLFPGPSYQNIKSIMEDSTILSDWTNSNKQKMKYDFSCELYRMSTYSTFPAGVPVSERSLARAGFYYTGVNDKVKCFCCGLMLDNWKLGDSPIQKHKQLYPSCSFIQNLVSASLGSTSKNTSPMRNSFAHSLSPTLEHSSLFSGSYSSLSPNPLNSRAVEDISSSRTNPYSYAMSTEEARFLTYHMWPLTFLSPSELARAGFYYIGPGDRVACFACGGKLSNWEPKDDAMSEHRRHFPNCPFLENSLETLRFSISNLSMQTHAARMRTFMYWPSSVPVQPEQLASAGFYYVGRNDDVKCFCCDGGLRCWESGDDPWVEHAKWFPRCEFLIRMKGQEFVDEIQG
notes: range 1-350; not shown: glutathione S-transferase encoded by vector pGEX4T; vector linker not described
B2: in vitro translated 35S-labeled pro-caspase-9 (enzyme, UniProt P55211 1-416, looked up)
chain: MDEADRRLLRRCRLRLVEELQVDQLWDALLSRELFRPHMIEDIQRAGSGSRRDQARQLIIDLETRGSQALPLFISCLEDTGQDMLASFLRTNRQAAKLSKPTLENLTPVVLRPEIRKPEVLRPETPRPVDIGSGGFGDVGALESLRGNADLAYILSMEPCGHCLIINNVNFCRESGLRTRTGSNIDCEKLRRRFSSLHFMVEVKGDLTAKKMVLALLELAQQDHGALDCCVVVILSHGCQASHLQFPGAVYGTDGCPVSVEKIVNIFNGTSCPSLGGKPKLFFIQACGGEQKDHGFEVASTSPEDESPGSNPEPDATPFQEGLRTFDQLDAISSLPTPSDIFVSYSTFPGFVSWRDPKSGSWYVETLDDIFEQWAHSEDLQSLLLRVANAVSVKGIYKQMPGCFNFLRKKLFFKTS
modifications: 35S-L-methionine labeled
notes: domain: zymogen; also called zymogen of caspase-9; Mch6
B3: FLAG tagged pro-caspase-9 (enzyme, UniProt P55211 1-416, looked up, not shown: small tags and cut ends)
chain: B2 chain
notes: domain: zymogen; also called Flag-pro-caspase-9; FLAG-caspase-9
B4: GST-CD40 cytosolic domain (other, UniProt P25942 216-277, looked up)
chain: KKVAKKPTNKAPHPKQEPQEINFPDDLPGSNTAAPVQETLHGCQPVTQEDGKESRISVQERQ
notes: domain: cytosolic domain; Control protein; not shown: glutathione S-transferase
B5: purified recombinant active caspase-3 (His6-tagged) (enzyme)
chain 1: SGISLDNSYKMDYPEMGLCIIINNKNFHKSTGMTSRSGTDVDAANLRETFRNLKYEVRNKNDLTREEIVELMRDVSKEDHSKRSSFVCVLLSHGEEGIIFGTNGPVDLKKITNFFRGDRCRSLTGKPKLFIIQACRGTELDCGIETD
chain 2: SGVDDDMACHKIPVEADFLYAYSTAPGYYSWRNSKDGSWFIQSLCAMLKQYADKLEFMHILTRVNRKVATEFESFSFDATFHAKKQIPCIVSMLTKELYFYH
notes: domain: large subunit;domain: small subunit; also called His6-caspase-3; CPP32
B6: processed (active) caspase-3 of 293 cell cytosolic extracts treated with cytochrome c and dATP (enzyme, human)
chain 1: B5 chain 1
chain 2: B5 chain 2
notes: domain: large subunit;domain: small subunit; Endogenous protein of the extract, detected with anti-caspase-3 antiserum that sees only the zymogen and the large subunit; also called processed caspase-3; band 3
B7: GST-c-IAP-2(BIR) (other, human, UniProt Q13489 1-335, looked up)
chain: MNIVENSIFLSNLMKSANTFELKYDLSCELYRMSTYSTFPAGVPVSERSLARAGFYYTGVNDKVKCFCCGLMLDNWKRGDSPTEKHKKLYPSCRFVQSLNSVNNLEATSQPTFPSSVTNSTHSLLPGTENSGYFRGSYSNSPSNPVNSRANQDFSALMRSSYHCAMNNENARLLTFQTWPLTFLSPTDLAKAGFYYIGPGDRVACFACGGKLSNWEPKDNAMSEHLRHFPKCPFIENQLQDTSRYTVSNLSMQTHAARFKTFFNWPSSVLVNPEQLASAGFYYVGNSDDVKCFCCDGGLRCWESGDDPWVQHAKWFPRCEYLIRIKGQEFIRQVQ
notes: range 1-335; not shown: glutathione S-transferase encoded by vector pGEX4T; vector linker not described

The target of assay [1] is purified recombinant active caspase-7 (His6-tagged) (UniProt P55210). Kind of assay: progress curves of DEVD-AFC hydrolysis by caspase-7 (150 pM) with 0.025 to 1.5 µM IAP.
A further assay deals with 293T cells. The assay is described as follows: Bax-induced apoptosis and caspase-3 processing in transfected 293T cells. The class given is cell-based, Human. The following applies: PI staining, 24 hr; Bax expressing cells treated with 50 µM inhibitor (Bax alone about 25%). The method, then: N-benzyloxycarbonyl-Val-Ala-Asp fluoromethylketone (zVAD-fmk; 50 µM) (Bachem California; Torrance CA) was added immediately after transfection of the Bax plasmid. Transfection efficiency was uniformly 80-90%, as determined by X-Gal staining following cotransfection with pCMV-βGal.
Cells were maintained in culture for 24 hr, then floating and attached cells were harvested and an aliquot was removed and the percent of dead cells was determined by either trypan blue or propidium iodide (PI) dye exclusion assay. A second aliquot was used to assess the percentage of apoptotic cells with subdiploid DNA content by FACS analysis of PI stained, ethanol fixed cells. The remaining cell pellets were lysed in 10 mM HEPES (pH 7.5), 142 mM KCl, 1 mM EGTA, 1 mM DTT, 0.2% NP-40, 0.1 mM PMSF and used for immunoblot analysis or for protease assays.

For a further assay, the system named is pro-caspase-9 processing. Kind of assay: Cytochrome c-induced processing of pro-caspase-9 in 293 cell cytosolic extracts. The class given is biochemical. To be noted: 10 µM cytochrome c, 1 mM dATP, 30 °C, 30 minutes. As for the experimental part:
For the results shown in Figure 4, in vitro translated ^35S-labeled pro-caspase-9 was added to cytosolic extracts from 293 cells, and subsequently incubated for 30 min at 30 °C with (lanes 2-6) or without (lane 1) 10 µM cytochrome c and 1 mM dATP in the presence or absence of 0.2 µM GST-IAP proteins or a GST control protein. Cytochrome c induced processing of pro-caspase-9 was subsequently monitored by SDS-PAGE and autoradiography.
Pro-caspase-9 inhibition by Ac-DEVD-fmk, zVAD-fmk and XIAP was compared as follows. In vitro translated ^35S-labeled pro-caspase-9 was added to cytosolic extracts from 293 cells containing 10 µM cytochrome c and 1 mM dATP. Samples were incubated at 30 °C for 30 minutes in the presence of the indicated concentrations of inhibitors. Proteins were separated on SDS-PAGE gels, dried directly, and exposed to film.

The target of assay [2] is B5. Kind of assay: progress curves of DEVD-AFC hydrolysis by caspase-3 (7 pM) with 0.025 to 1.5 µM IAP.
The target in assay [3] is T1, GST-c-IAP-1 (human, UniProt Q13490 1-618).
T1 construct: domain: full length; also called HIAP-2; hMIHB; not shown: glutathione S-transferase encoded by vector pGEX4T; vector linker not described
The assay is described as follows: opening sentence of Example VI.

For assay [4], the target named is T2, GST-c-IAP-2 (human, UniProt Q13489 1-604).
T2 construct: domain: full length; also called HIAP-1; hMIHC; not shown: glutathione S-transferase encoded by vector pGEX4T; vector linker not described
Kind of assay: opening sentence of Example VI.

Another assay has as its target T3, myc-tagged c-IAP-1 (human, UniProt Q13490 1-618).
T3 construct: also called pcDNA3myc-c-IAP-1; pcDNA3-myc-IAP-1; not shown: Myc tag of pcDNA3myc
The assay is described as follows: legend of Figure 8: anti-myc immunoprecipitation, anti-FLAG immunoblot. In general terms: A western blot detects proteins with antibodies after separation by electrophoresis.

The target of a further assay is T4, myc-tagged c-IAP-2 (human, UniProt Q13489 1-604).
T4 construct: also called pcDNA3myc-c-IAP-2; pcDNA3-myc-c-IAP-2; not shown: Myc tag of pcDNA3myc
The description is as above.

In assay [5] the target is B5. The assay is described as follows: GST pull-down on glutathione-SEPHAROSE, immunoblot.
The target of assay [6] is T1, GST-c-IAP-1. Kind of assay: opening sentence of Example IV.
Assay [7] concerns the target T2, GST-c-IAP-2. The assay is described as follows: opening sentence of Example IV.
For the assay “GST-c-IAP-1(BIR)”, the target named is B1. Kind of assay: glutathione-SEPHAROSE affinity chromatography.
The target of assay [8] is T1, GST-c-IAP-1. The assay is described as follows: GST-IAP added to 293 extracts previously treated with cytochrome c, recovered on glutathione-Sepharose, anti-caspase-3 immunoblot.
The target in assay [9] is T2, GST-c-IAP-2. The assay is described as above.

As to GST-c-IAP-2 (from UniProt Q13489 1-604), the inhibitory constant (Ki) (in general, a measure of affinity in units of concentration, obtained from inhibition or displacement) in assay [1] turned out to be 26 nM.
Take “N-benzyloxycarbonyl-Val-Ala-Asp fluoromethylketone [zVAD-fmk]”: the apoptotic cells result in the assay with 293T cells is “about 5%”. Further, the “concentration to completely abolish processing of pro-caspase-9” value in the assay on pro-caspase-9 processing is “at least 5 µM”.
As to B1, the inhibition constant (Ki) stood at 160 nM in [1] and 330 nM in assay [2].
In the case of B2, the binding result in the assay with GST-c-IAP-1 [3] and with GST-c-IAP-2 [4] was “binds” throughout.
Consider B3, for which the binding result with myc-tagged c-IAP-1 and with myc-tagged c-IAP-2 was “binds” in each case.
As for B4, the binding result in assay [5] is “no binding”.
With B5, the binding result with GST-c-IAP-1 [6], with GST-c-IAP-2 [7] and in the assay with GST-c-IAP-1(BIR) was “binds” throughout.
As for B6, the binding result with GST-c-IAP-1 [8] and in the assay with GST-c-IAP-2 [9] was “binds” in each case.
In the case of B7, the Ki in assay [1] was 238 nM; in assay [2] it was 260 nM.

For the origin of these results see patent EP0983376B1, “SCREENING ASSAYS FOR AGENTS THAT ALTER INHIBITOR OF APOPTOSIS (IAP) PROTEIN REGULATION OF CASPASE ACTIVITY” (The Burnham Institute, priority 1997, dated 1998).
